Experimental data taken from the nanobody polyreactivity screen of Harvey et al. (2022).

Assay: yeast display, Sf9 membrane polyspecificity reagent, FACS + sequencing; frameworks hold sequencing errors
Summary of the method: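 Polyreactivity labels are assigned by the sorting gate from which each nanobody was recovered. The gates were low and high (top ~1%), set on anti-HA fluorescence for expression and streptavidin fluorescence for reagent binding. Before sorting, galactose-induced (36–48 hours) yeast display cells were stained for 1 hour at 4 °C with 10% biotinylated, detergent-solubilized Sf9 membrane reagent.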

| Sequence | polyreactivity (PSR sort gate) |
| --- | --- |
| QVQLVESGGGLVQAGGSLRLSCAASGRISAFNSMGWYRQAPGKERELVAAINVSGGNTYYADSVKGRFTISRDNAKNTFFLQMNSLKPEDTAVYYCAAERRRWGLDYYYWGQGTQVTVSS | high polyreactivity |
| QVQLVESGGGLVQAGGSLRLSCAASGRISARYVMGWYRQAPGKERELVAAISWSGDRTYYADSVKGRFTISRDNAKNTVYLQMNSLKPEDTAVYYCATGFYSRLAYGYGYWGQGSQVTVSS | high polyreactivity |
| QVQLVESGGGLVQAGGSLRLSCAASGRISASYAMGWYRQAPGKERELVAAITGSGGSTYYADSVKGRFTISRDNAKNTVYVQMNSLNPEDTAVYYCAADPGWAWWVLNYWVQGTQVTVSS | low polyreactivity |
| QVQLVESGGGLVQAGGSLRLSCAASGRISASYAMGWYRQAPGKEREWVAAITGSGGSTYYADSVKGRFTISRDNAQNTVYLQMNSLKPEDTGVYYCAAEPVLSVFFEFDSWGQGTQVTVSS | low polyreactivity |
| QVQLVESGGGLVQAGGSLRLSCAASGRISFRIRWDGIDRRLGKKGSWLPLLTNTGSTNYADSVKGRFTISRDNAKNTVYLQMNSLKPEDTAVYYCNADQTGGSSYPAYFEYDYWGQGTQVTVSS | low polyreactivity |
| QVQLVESGGGLVQAGGSLRLSCAASGRISGFYTMGWYRQAPGKERELVATITRSGSRTYYADSVKGRFTISRDNAKNTVYLQMNSLKPEDTAVYYCARSQAVYDGWFAKFGYWGQGTQVTVSS | low polyreactivity |
| QVQLVESGGGLVQAGGSLRLSCAASGRISGLYAMGWSRQAPGKEWELVADSTYYADSVKGRFTISRDNAKNTVYLQMNSLKEEDTAVYYCAAVGGGTSTYSGDYWGQGTQVTVSS | high polyreactivity |
| QVQLVESGGGLVQAGGSLRLSCAASGRISGWNAMGWYRQAPGKERELVAASTWSDGSTYYADSVKGRFTISRDNAKNTVYLQMNSLKPEDTAVYYCAAEYGWYAGDPYYGYDYYWGQGTQVTVSS | high polyreactivity |
| QVQLVESGGGLVQAGGSLRLSCAASGRISIIYAMGWYRQAPGKERELVARISGSGGSTNYADSVKGRFTISRDNAKNTVYLQMISLKPEDTAVYYCAAVPWRIHKYYYWGQGTQVTVSS | high polyreactivity |
| QVQLVESGGGLVQAGGSLRLSCAASGRISKRNVMGWYRQAPGKERELVAGITSTGSTSYADSVKGRFTISRDNAKNTVYLQMNSLKPEDTAVYYCAARGQATYNWGQGTQVTVSS | high polyreactivity |
| QVQLVESGGGLVQAGGSLRLSCAASGRISPKNAMGWNTQAPGKERELVATIRKIGGRTYYADSVKGRFTISRDNAKNTVYLQMNSLKPEDTAVYYCATDFAPSYYPDRFDYWGQGTQVTVSS | low polyreactivity |
| QVQLVESGGGLVQAGGSLRLSCAASGRISRGYAMGWYRQAPGKERELVAAIDSDGDTNYADSVKGRFTISRDNAKNTVYLQMNRLKAEDTAVYYCNKDGAYKTAYKRWTLYDYWGQGTQVTVSS | low polyreactivity |
| QVQLVESGGGLVQAGGSLRLSCAASGRISRLYAMGWYRQAPGKERELVAAITDSGGSTYYADSVKGRFTISRDNAKNTVYLHMNSLKPEDTAVYDCAATWSNWYREYYYWGQGTQVTVSS | high polyreactivity |
| QVQLVESGGGLVQAGGSLRLSCAASGRISSYYVMGWYRQAPGKERELVAAITGGDSTNYADSVKGRFTISRDNAKNTVYLQMNSLKPEDTAVYYCAAKAYSYSRWGYYGYYYWGQGSQVTVSS | high polyreactivity |
| QVQLVESGGGLVQAGGSLRLSCAASGRISTAYAMGWYRQAPGKERELVAAISSGTSTTYADSVKGRFTISRDNAKNTVYLQMNSLQPEDTAVYYCNADSWYGHYDSWGQGTQVTESS | low polyreactivity |
| QVQLVESGGGLVQAGGSLRLSCAASGRISTYTMGWYRQAPGKERELVATISTDASTNYADSVKGRFTISRDNAKNTVYLQINSLKPEDTAVYYCAAVIVNQYYDYWGQGTQVTVSS | low polyreactivity |
| QVQLVESGGGLVQAGGSLRLSCAASGRISVFNAMGWYRHAPGKERELVAAITSGGSTNYADSVKGRFTISRDNAKNTVYLQMNSLKPEDTAVYYCNADVYHSHEPHYDYWGQGTQVTVSS | low polyreactivity |
| QVQLVESGGGLVQAGGSLRLSCAASGRISVFNAMGWYRQAPGKERELVATITDGGSTYYADSVKGRFTISRDNAKNSVYLQMNSLKPEDTAVYYCAKKQVTTDVSSETFVLEMDYLGQGTQVTVSS | low polyreactivity |
| QVQLVESGGGLVQAGGSLRLSCAASGRISVFYTMGWYRQAPGKERELVAVIRTSGGRTNYADSVKGRFTISRDNAKNTVYLQMNSLKPEDTAVYYCAARVVRYGYKYYYWGQGTQVTVSS | low polyreactivity |
| QVQLVESGGGLVQAGGSLRLSCAASGRISWGYAMGWYRQAPGKERELVAVINFNGGRTYYADSVKGRFTISRDNAKNTVYLQMNSLKAEDTAVYYCAADSGYEYDYWGQGTQVTVSS | low polyreactivity |
| QVQLVESGGGLVQAGGSLRLSCAASGRISYANSMGWYRQAPGKESELVASITYSAGSTYADSVKGRFTISRDNAKNTVYLQMNSLKPEDTAVYYCAKRPSQHYRSYLMDYWGQGTQVTVSS | low polyreactivity |
| QVQLVESGGGLVQAGGSLRLSCAASGRISYLYTMGWYRQAPGKERELVAAIRWRDGSTYYADSVKGRFTISRDNAKNTVYLQMNSLKPEDTAVYYCAKRFAGGEYGYYWGQGTQVTVSS | low polyreactivity |

| Sequence | polyreactivity (PSR sort gate) |
| --- | --- |
| QVQLVESGGGLVQAGGSLRLSCAASGRISYYYLGWYRQAPGKERELVAAISWNGGRTYYADSVKGRFTISRDNAKNTVYLQMNSLKPEDTAVYYCAAKTGYYPYGYWGQGTQVTVSS | high polyreactivity |
| QVQLVESGGGLVQAGGSLRLSCAASGRIVGRYVMGWYRQARGKERELVAAITSGGSTYYADSVKGRFTISRDNAKNTVYLQMNSLKPEDTAVYYCAAKWRSPRYYLYGYWGQGTQVTVSS | high polyreactivity |
| QVQLVESGGGLVQAGGSLRLSCAASGRIVSLNAMGWNRQAPGKERELVAGIRKRGRSTYYADSVKGRFTISRDNAKNTVYLQMNSLKPEDTAVYYCAAQPALTYRFYYWGQGTQVTVSS | high polyreactivity |
| QVQLVESGGGLVQAGGSLRLSCAASGRIVVPYAMGWYRQAPGKERELVAAITSGGSTYYADSVKGRFTISRDNAKNTVYLQMNSLKPEDTAVYYCAATSRRSSETYYFWGQGTQVTVSS | high polyreactivity |
| QVQLVESGGGLVQAGGSLRLSCAASGRIWSNAMGWYRQAPGKERELVAVISSRGGSTYYADSVKGRFTISRDNAKNTVYFQMNSLKPEDTAVYYCAARQRAKYNYWGQGTQVTVSS | high polyreactivity |
| QVQLVESGGGLVQAGGSLRLSCAASGRIYAMGWYRQAPGKERELVAAISRGGSTYYADSVKGRFTISRDNAKNTVYLQKNSLKPEDTAVYYCNRKSYRLRWKVRGQYLLGYDWGQGTQVTVSS | high polyreactivity |
| QVQLVESGGGLVQAGGSLRLSCAASGRIYAMGWYRQAPGKERELVAAISYSGGSTYYADSVKGRFTISRDNAKNTVYLQMNSLKPEDTAVYYCAAVIYRGYYYWGQGTQVTVSS | high polyreactivity |
| QVQLVESGGGLVQAGGSLRLSCAASGRIYGAYAMGWYRQAPGKEMEMVAAITSAGSTLYADSVKGRFTISRDNAMNTVYLQMNSLNPEDTAVYYCAADGIARAYVLFDAYDFLYDYWGQGTQVTVSS | low polyreactivity |
| QVQLVESGGGLVQAGGSLRLSCAASGRIYLRYTMGWYRQAPGKERELVAAISARTTGTYYADSVKGRFTISRDNAKNTVYLQMKSLKPEDTAVYYCASKSKLSRDLYSWGQGTQVTVSS | low polyreactivity |
| QVQLVESGGGLVQAGGSLRLSCAASGRIYRNAMGWYRPAPGKERELVAAISSRGASTYYADSVKGRFTITRDNAKNTVYLQMNSLKPEDTAVYYCAARTSSSSGYYAREYWGQGTQVTVSS | high polyreactivity |
| QVQLVESGGGLVQAGGSLRLSCAASGRIYTWNAMGWYRQAPGKERDLVASISRSGTSTYYADSVKGRNTISRDNALTTVYLQMNSLKPEDTAVYYCAAKTSRGDRTQVEYWGQGTQVTVSS | high polyreactivity |
| QVQLVESGGGLVQAGGSLRLSCAASGRIYVKNAMGWYRPAPGKERELVAAINWRGTSTYYADSVKGRFTISRDNAKNTVYLQMKSLKPEDTAVYYCNRVLGYPYGVDYWGQGTQVTVSS | high polyreactivity |
| QVQLVESGGGLVQAGGSLRLSCAASGRIYWWYAMGGSRQEPGKERELVAGISWSGGSTYYADSVKGRFTISRDNAKNTVYLQMNSLKPEDSAVYYCNAQYASGRSYFFYWHRFDYGGQGTQVTVSS | high polyreactivity |
| QVQLVESGGGLVQAGGSLRLSCAASGRIYYNAMGWYRQAPGKEGELVAAISGSGTRTYYADSVKGRFTISRDNAKTTVYLQMNSQKPEDTAVYYCARYYSHYSTYDYVRYGYWGQGTQVTVSS | high polyreactivity |
| QVQLVESGGGLVQAGGSLRLSCAASGRIYYYAMGWYRQAPGKERELVAAISRGGSTKYADSVKGRFTISRDNAKNTVYLQMNSLKPEETAVYYCAAGGTVYRYDYWGQGTQVTVSS | low polyreactivity |
| QVQLVESGGGLVQAGGSLRLSCAASGRLFDSNARGWYSQAPGKERELVAAISSGASTYYADSVKGRFTISRDNAKNTVYLQMNSLKPEDTAVYYCAVRLRYAYRARGNYWGQGTQVTVSS | low polyreactivity |
| QVQLVESGGGLVQAGGSLRLSCAASGRLFKSYAMGWYRQAPGKEREFVAAISTRSSSTYYADSVKGLFTISRDNAKNTVYLQMNSLKPEDTAVYYCAATPRRVSPYGVPYGDVYWGQGTQVTVSS | low polyreactivity |
| QVQLVESGGGLVQAGGSLRLSCAASGRLFPYYDMGWYRQAPGKERELVAAITGNGGSTYYADSVKGRFTISRDNAKNTVYLQMNSLKPEDTAVYYCAVDPYYYGEDYWGQGTQVTVSS | low polyreactivity |
| QVQLVESGGGLVQAGGSLRLSCAASGRLFSRNVMGWSRQAPGKERELVAAISSSGSTYADSVKGRFTISRDNEKNTVYLQMNSLKPEDTAVSYCAAVIYLWGQGTQVTVSS | high polyreactivity |
| QVQLVESGGGLVQAGGSLRLSCAASGRLLPIYAMGWYRQAAGKERELVATISWTSDSTYYADSVKGRFTISRDNAKNTVYLQMNSLKPEDTAFYYCAREYTYNYASTVIYDHWGQGTQVTVSS | low polyreactivity |
| QVQLVESGGGLVQAGGSLRLSCAASGRMFRWYAMGWYRPAPGKERELVAAITSGGSTNYADSVKGRFTISRDNAKNTVYLKMNSLKPEDTAVYYCAARWKFPSSFYYWGQGTQVTVSS | high polyreactivity |
